What was measured:
human MAGEB18 = molecular target: T1, human MAGEB18 (human, UniProt Q96M61 1-343); assay: IHC, FFPE CHO cells transfected with human MAGEB18
T1 construct: whole, on cells; FFPE cell pellets; also called MAGE-18
T1 sequence (looked up): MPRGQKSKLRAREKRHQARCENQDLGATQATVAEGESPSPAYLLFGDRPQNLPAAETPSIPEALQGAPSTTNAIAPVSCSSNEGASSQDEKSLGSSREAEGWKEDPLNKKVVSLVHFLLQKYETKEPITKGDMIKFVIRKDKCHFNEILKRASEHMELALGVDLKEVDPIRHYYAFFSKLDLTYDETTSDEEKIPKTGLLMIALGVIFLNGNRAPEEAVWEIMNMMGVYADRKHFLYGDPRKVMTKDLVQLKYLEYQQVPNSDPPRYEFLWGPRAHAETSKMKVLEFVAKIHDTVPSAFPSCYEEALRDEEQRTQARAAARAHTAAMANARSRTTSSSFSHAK
Method: (§1) FFPE samples were sectioned at 4 μm and mounted on positive charged glass slides. After mounting, paraffin sections were air-dried at room temperature. FFPE TMA samples were received as freshly sectioned and mounted on glass slides. The fully automated IHC assay was performed on a Discovery Ultra Stainer (Ventana Medical Systems, Tucson, AZ) using Ventana Anti-Rabbit HQ (cat #760-4815), Ventana Anti-HQ HRP (cat #760-4820), and Ventana Antibody Diluent with Casein (cat #760-219) (Ventana Medical Systems, Tucson, AZ). The slides were baked on the Discovery Ultra Stainer at 60° C. for 8 minutes, de-paraffinized with Ventana Discovery wash (cat #950-510) for 3 cycles (8 minutes each) at 69° C., and underwent cell conditioning (target retrieval) at 95° C. for 16 minutes (for cell arrays) or 32 minutes (tissues or TMAs) in CC1 buffer (cat #950-500). Following this, slides were incubated with Background Sniper (cat #BS966M, Biocare Medical, Pacheco, CA) in a Ventana Option Prep kit (cat #771-751) for 28 minutes, incubated with CM inhibitor (a part of the Ventana DAB kit cat #760-159) for 12 minutes, and incubated for 1 h at RT with MAGE-B2 antibody diluted with Ventana diluent with Casein in a Ventana Prep kit (cat #770-001) (working concentration at 0.1 μg/ml for cell pellet, or 1-5 ug/ml for tissues) or with a matched concentration of isotype control Rabbit IgG1 antibody. Following this, slides were incubated with the Ventana Anti-Rabbit HQ (cat #760-4815) for 28 minutes at RT, Ventana Anti-HQ HRP (cat #760-4820) for 28 minutes at RT, and signals detected with Ventana DAB chromogen kit (cat #760-159) for 5 minutes at RT. Slides were counterstained with Ventana Hematoxylin II (cat #5266726001) for 8 minutes and Ventana Bluing reagent (cat #526676900) for 4 minutes. Slides were coverslipped and digitized using an Aperio AT2 scanner (Leica Biosystems Inc, Buffalo Grove, IL).

[1] = molecular target: T2, Human MAGEB2 (Melanoma-associated antigen B2) (human, UniProt O15479 1-319); assay: IHC on FFPE NCI-H82 cells (endogenous MAGEB2)
T2 construct: Intracellular antigen detected by IHC in FFPE material: CHO cells transfected with human MAGEB2 (mCherry vector with Myc/DDK tags, or ORF without tags)
T2 sequence: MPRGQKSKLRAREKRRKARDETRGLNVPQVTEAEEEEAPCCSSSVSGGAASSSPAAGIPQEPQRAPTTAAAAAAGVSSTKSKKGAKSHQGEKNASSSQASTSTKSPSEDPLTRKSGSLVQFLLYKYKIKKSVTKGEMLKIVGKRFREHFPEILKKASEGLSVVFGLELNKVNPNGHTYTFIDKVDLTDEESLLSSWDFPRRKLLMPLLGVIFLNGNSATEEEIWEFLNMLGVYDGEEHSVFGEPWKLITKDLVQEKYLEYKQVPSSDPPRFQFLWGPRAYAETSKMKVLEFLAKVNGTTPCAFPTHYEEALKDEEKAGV
Method: as §1

[2] = molecular target: T2, Human MAGEB2 (Melanoma-associated …); assay: IHC on FFPE NCI-H1703 cells (endogenous MAGEB2)
Method: as §1

[3] = molecular target: T2, Human MAGEB2 (Melanoma-associated …); assay: IHC on FFPE VMRC-LCD cells (endogenous MAGEB2)
Method: as §1

human MAGEA9 = molecular target: T3, human MAGEA9 (human, UniProt P43362 1-315); assay: IHC, FFPE CHO cells transfected with human MAGEA9
T3 construct: whole, on cells; FFPE cell pellets
T3 sequence (looked up): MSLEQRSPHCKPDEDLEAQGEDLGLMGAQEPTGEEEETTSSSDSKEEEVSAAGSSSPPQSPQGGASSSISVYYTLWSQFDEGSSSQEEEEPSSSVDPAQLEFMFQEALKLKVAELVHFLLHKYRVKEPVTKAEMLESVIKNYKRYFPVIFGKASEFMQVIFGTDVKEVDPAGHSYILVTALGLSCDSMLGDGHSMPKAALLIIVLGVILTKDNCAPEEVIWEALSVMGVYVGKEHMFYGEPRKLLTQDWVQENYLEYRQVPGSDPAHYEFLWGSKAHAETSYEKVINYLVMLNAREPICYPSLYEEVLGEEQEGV
Method: as §1

[4] = molecular target: T2, Human MAGEB2 (Melanoma-associated …); assay: IHC on FFPE SCaBER cells (endogenous MAGEB2)
Method: as §1

[5] = molecular target: T2, Human MAGEB2 (Melanoma-associated …); assay: IHC on FFPE CFPAC-1 cells (endogenous MAGEB2)
Method: as §1

B1: 1I14 (antibody, V domains shown)
VH: QSVEESGGRLVTPGTPLTLTCTISGFSLSSYAMSWVRQAPGKGLEWIGSIGGGGSAVYASWAKGRFTISKTSTTVDLRITSPTTEDTAMYFCGRGFYSIDLWGPGTLVTVSS
VL: DVVMTQTPASVEATVGGTVTIKCQSSQSVYDNNALAWYQQNAGQRPRLLIYGASTLASGVPSRFSASGSGTEFTLTISDLECADAATYYCQCTYYVSSYQNDFGGGTEVVVKG
notes: also called MAGE-B2 (1i14)
binding result (human MAGEB18): no binding (tested: 0.1 µg/ml)
IHC % Frequency [1]: 0%
IHC Intensity [1]: 0
IHC % Frequency [2]: 0%
IHC % Frequency [3]: 0%
IHC Intensity [3]: 0
binding result (human MAGEA9): no binding (tested: 0.1 µg/ml)
IHC % Frequency [4]: 0%
IHC Intensity [4]: 0
IHC % Frequency [5]: 0%

B2: 1C3 (antibody, V domains shown)
VH: QSLEESGGGLVQPEGSLTLTCTAFGVTLTNYYICWVRQAPGKGLEWVGCIDNANGRTYYASWAKGRFTISKTSSTTGTLQMTSLTAADTATYFCARSLATPLWGPGTLVTVSS
VL: DIVMTQTPSSVEAAVGGTVTIKCQASQNISSYLAWYQQKPGQPPKLLIYRASTLASGVPSRFKGSGSGTQFTLTISDLECADAATYYCQSYDDSRSSNFFYAFGGGTEVVVKG
notes: also called MAGE-B2 (IC3); anti-MAGEB2 antibody 1C3
binding result (human MAGEB18): no binding (tested: 0.1 µg/ml)
IHC % Frequency [1]: 0%
IHC Intensity [1]: 1
IHC % Frequency [2]: 0%
IHC % Frequency [3]: 0%
IHC Intensity [3]: 0
binding result (human MAGEA9): no binding (tested: 0.1 µg/ml)
IHC % Frequency [4]: 70%
IHC Intensity [4]: 2
IHC % Frequency [5]: 0%

B3: 4G17 (antibody, IgG1, V domains shown)
VH: QSLEESGGGLVQPEGSLTLTCTASGVTLSNYYICWVRQAPGKGLEWIGCIDNVNGRTYYASWAKGRFTISKTSSTTGTLQMTSLTAADTATYFCARSLATPLWGPGTLVTVSS
VL: DIVMTQTPASVEAAVGGTVTIKCQASQNIDSYLAWYQQKPGQPPKLLIYRASTLASGVPSRFKGSGSGTEFTLTISDLECADAATYYCQSYDDSRSSSFFYGFGGGTEVVVK
notes: Rabbit monoclonal IgG1; Tested as supernatant and as small batch purified antibody; also called MAGE-B2 (4G17); anti-MAGEB2 antibody 4G17
binding result (human MAGEB18): no binding (tested: 0.1 µg/ml)
IHC % Frequency [1]: 0%
IHC Intensity [1]: 0
IHC % Frequency [2]: 0%
IHC Intensity [2]: 0
IHC % Frequency [3]: 0%
IHC Intensity [3]: 0
binding result (human MAGEA9): no binding (tested: 0.1 µg/ml)
IHC % Frequency [4]: 70%
IHC Intensity [4]: 2
IHC % Frequency [5]: 0%

B4: 1J15 (antibody, IgG1, V domains shown)
VH: QSLEESGGGLVQPEGSLTLTCTAFGFTLNNYYICWVRQAPGKGLEWIACIDNANGRTYYASWAKGRFTISKTSSTTVTLQMTSLTAADTATYFCARSLSTPLWGPGTLVTVSS
VL: DIVMTQTPASVEAAVGGTVTIKCQASQSISSYLSWYQQKPGQPPKLLIYRASTLASGVPSRFRGSGSGTQFTLTISDLECADAATYYCQSYDDSSDNNFFYGFGGGTEVVVR
notes: Rabbit monoclonal IgG1; Tested as supernatant and as small batch purified antibody; also called MAGE-B2 (IJ15); anti-MAGEB2 antibody 1J15
binding result (human MAGEB18): no binding (tested: 0.1 µg/ml)
IHC % Frequency [1]: 0%
IHC Intensity [1]: 0
IHC % Frequency [2]: 0%
IHC % Frequency [3]: 0%
IHC Intensity [3]: 0
binding result (human MAGEA9): no binding (tested: 0.1 µg/ml)
IHC % Frequency [4]: 50%
IHC Intensity [4]: 2
IHC % Frequency [5]: 0%
